{
  "source": "paper PMC10349104",
  "binders": {"B1": {"name": "CCL15 (ligand)", "chain": "QFTNDAETELMMSKLPLENPVVLNSFHFAADCCTSYISQSIPCSLMKSYFETSSECSKPGVIFLTKKGRQVCAKPSGPGVQDCMKKLKPYSI", "modifications": "not checked"}, "B2": {"name": "CCL4, P13236 24-92 (ligand)", "chain": "APMGSDPPTACCFSYTARKLPRNFVVDYYETSSLCSQPAVVFQTKRSKQVCADPSESWVQEYVYDLELN"}, "B3": {"name": "CCL14 (ligand)", "chain": "TKTESSSRGPYHPSECCFTYTTYKIPRQRIMDYYETNSQCSKPGIVFITKRGHSVCTNPSDKWVQDYIKDMKEN", "modifications": "not checked"}},
  "key": {"EVA-4, P0C8E9": {"biological_target": "T1, EVA-4, P0C8E9", "T1 chain": "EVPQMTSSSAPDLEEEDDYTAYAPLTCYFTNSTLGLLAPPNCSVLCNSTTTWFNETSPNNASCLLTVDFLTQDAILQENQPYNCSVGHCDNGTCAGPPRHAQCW", "test": "not stated; Kd of EVA-4 for human chemokines, three readings (source data of Supplementary Fig. 7); method and conditions not told for EVA-4"}, "[1]": {"biological_target": "EVA-A(C8) (Amblyomma americanum)", "test": "SPR"}, "[2]": {"biological_target": "EVA-A(DN) (Amblyomma americanum)", "test": "SPR"}, "[3]": {"biological_target": "EVA-A(L39P) (Amblyomma americanum)", "test": "SPR"}, "[4]": {"biological_target": "EVA-AAM1001 (Amblyomma americanum)", "test": "SPR"}, "[5]": {"biological_target": "EVA-A(Y44A) (Amblyomma americanum)", "test": "SPR"}, "[6]": {"conditions": "remark: other sources report otherwise"}},
  "note": "Several values for one entry are separate records, joined by “and”; a condition that tells them apart may be missing. Equal entries are not always repeated. Where two headings read alike, the source gives them in different places.",
  "data": [
    {"binder": "B1", "values": [
      {"measurement": "Kd", "setting": "EVA-4, P0C8E9", "value": "287 nM and 216 nM and 218 nM"},
      {"measurement": "Kd", "setting": "[1]; [6]", "value": "714 nM and 467 nM and 550 nM"},
      {"measurement": "koff", "setting": "[1]; [6]", "value": "0.0149 s⁻¹ and 0.0104 s⁻¹ and 0.013 s⁻¹"},
      {"measurement": "kon", "setting": "[1]; [6]", "value": "20800 M⁻¹ s⁻¹ and 22300 M⁻¹ s⁻¹ and 23700 M⁻¹ s⁻¹"},
      {"measurement": "Kd", "setting": "[2]; [6]", "value": "35.6 nM and 33.6 nM and 33 nM"},
      {"measurement": "koff", "setting": "[2]; [6]", "value": "0.00216 s⁻¹ and 0.00209 s⁻¹ and 0.00218 s⁻¹"},
      {"measurement": "kon", "setting": "[2]; [6]", "value": "60800 M⁻¹ s⁻¹ and 62100 M⁻¹ s⁻¹ and 66000 M⁻¹ s⁻¹"},
      {"measurement": "Kd", "setting": "[3]; [6]", "value": "26.9 nM and 23 nM and 29.8 nM"},
      {"measurement": "koff", "setting": "[3]; [6]", "value": "0.0026 s⁻¹ and 0.00246 s⁻¹ and 0.00303 s⁻¹"},
      {"measurement": "kon", "setting": "[3]; [6]", "value": "96500 M⁻¹ s⁻¹ and 107000 M⁻¹ s⁻¹ and 101000 M⁻¹ s⁻¹"},
      {"measurement": "Kd", "setting": "[4]; [6]", "value": "1.7 nM and 1.77 nM and 1.85 nM"},
      {"measurement": "koff", "setting": "[4]; [6]", "value": "0.000308 s⁻¹ and 0.000311 s⁻¹ and 0.000314 s⁻¹"},
      {"measurement": "kon", "setting": "[4]; [6]", "value": "182000 M⁻¹ s⁻¹ and 175000 M⁻¹ s⁻¹ and 170000 M⁻¹ s⁻¹"},
      {"measurement": "Kd", "setting": "[5]; [6]", "value": "80.9 nM and 215 nM and 188 nM"},
      {"measurement": "koff", "setting": "[5]; [6]", "value": "0.00852 s⁻¹ and 0.0138 s⁻¹ and 0.0129 s⁻¹"},
      {"measurement": "kon", "setting": "[5]; [6]", "value": "105000 M⁻¹ s⁻¹ and 64300 M⁻¹ s⁻¹ and 68500 M⁻¹ s⁻¹"}
    ]},
    {"binder": "B2", "values": [
      {"measurement": "Kd", "setting": "EVA-4, P0C8E9; [6]", "value": "212 nM and 126 nM and 137 nM"}
    ]},
    {"binder": "B3", "values": [
      {"measurement": "Kd", "setting": "EVA-4, P0C8E9", "value": "0.765 nM and 1.17 nM and 1.14 nM"},
      {"measurement": "Kd", "setting": "[1]", "value": "1.09 nM and 1.16 nM and 1.66 nM"},
      {"measurement": "koff", "setting": "[1]", "value": "0.000525 s⁻¹ and 0.00045 s⁻¹ and 0.000476 s⁻¹"},
      {"measurement": "kon", "setting": "[1]", "value": "482000 M⁻¹ s⁻¹ and 389000 M⁻¹ s⁻¹ and 288000 M⁻¹ s⁻¹"},
      {"measurement": "Kd", "setting": "[2]", "value": "0.12 nM and 0.109 nM and 0.11 nM"},
      {"measurement": "koff", "setting": "[2]", "value": "8.54e-05 s⁻¹ and 7.6e-05 s⁻¹ and 7.69e-05 s⁻¹"},
      {"measurement": "kon", "setting": "[2]", "value": "714000 1/(M s) and 697000 1/(M s) (2×)"},
      {"measurement": "Kd", "setting": "[3]", "value": "0.0403 nM and 0.0431 nM and 0.0505 nM"},
      {"measurement": "Kd", "setting": "[4]", "value": "0.0551 nM and 0.0372 nM and 0.0569 nM"},
      {"measurement": "koff", "setting": "[4]", "value": "6.24e-05 s⁻¹ and 5.52e-05 s⁻¹ and 6.41e-05 s⁻¹"},
      {"measurement": "kon", "setting": "[4]", "value": "1.1e+06 1/(M s) (2×) and 1.5e+06 1/(M s)"},
      {"measurement": "Kd", "setting": "[5]", "value": "0.12 nM and 0.125 nM and 0.0725 nM"},
      {"measurement": "koff", "setting": "[5]", "value": "6.21e-05 s⁻¹ and 5.76e-05 s⁻¹ and 3.35e-05 s⁻¹"},
      {"measurement": "kon", "setting": "[5]", "value": "519000 M⁻¹ s⁻¹ and 462000 M⁻¹ s⁻¹"}
    ]}
  ]
}
